Test results taken from patent US20260201064A1 (ISU ABXIS, published 2026).
Where a chain is given by its changes, count along the chain named.

T1: recombinant human ASM protein (human, UniProt P17405 47-630)
T1 construct: Recombinant human ASM in solution; also called acid sphingomyelinase (ASM) protein
T1 sequence: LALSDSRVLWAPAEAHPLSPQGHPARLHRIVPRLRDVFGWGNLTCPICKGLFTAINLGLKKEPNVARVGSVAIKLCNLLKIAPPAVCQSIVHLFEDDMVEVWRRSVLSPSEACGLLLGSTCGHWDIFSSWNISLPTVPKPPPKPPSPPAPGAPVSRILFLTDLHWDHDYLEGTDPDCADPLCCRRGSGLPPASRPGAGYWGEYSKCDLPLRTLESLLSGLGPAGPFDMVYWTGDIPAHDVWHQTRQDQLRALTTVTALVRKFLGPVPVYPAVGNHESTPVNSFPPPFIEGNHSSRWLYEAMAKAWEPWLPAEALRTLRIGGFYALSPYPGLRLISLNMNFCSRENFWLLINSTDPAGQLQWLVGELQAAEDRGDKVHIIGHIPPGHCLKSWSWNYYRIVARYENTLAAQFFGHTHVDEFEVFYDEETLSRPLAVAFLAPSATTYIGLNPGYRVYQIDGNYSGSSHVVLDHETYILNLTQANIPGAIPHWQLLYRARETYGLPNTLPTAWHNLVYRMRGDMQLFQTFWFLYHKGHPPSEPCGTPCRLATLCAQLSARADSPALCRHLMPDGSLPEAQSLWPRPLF

B1: #9104 (antibody, V domains shown)
VH: EVQLLESGGGLVQPGGSLRLSCAASGFTFSNYYMSWVRQAPGKGLEWVSGIYYGSGNIYYADSVKGRFTISRDNSKNTLYLQMNSLRAEDTAVYYCARDTPGFDYWGQGTLVTVSS
VL: QSVLTQPPSASGTPGQRVTISCTGSSSNIGNNAVNWYQQLPGTAPKLLIYYDSHRPSGVPDRFSGSKSGTSASLAISGLRSEDEADYYCGAWDYSLSAYVFGGGTKLTVLG
notes: Parental antibody; also called antibody #9104
B2: #9104v-H24 (antibody, human IgG4 S228P, lambda, V domains shown)
VH: B1 VH with I51L, N57I, I58P
VL: B1 VL
notes: Full-length IgG, lambda
B3: #9104v-H31 (antibody, human IgG4 S228P, lambda, V domains shown)
VH: B1 VH with I51V, N57T, I58P
VL: B1 VL
notes: Full-length IgG, lambda
B4: #9104v-H18 (antibody, human IgG4 S228P, lambda, V domains shown)
VH: B1 VH with N57T, I58P, A61S
VL: B1 VL
notes: Full-length IgG, lambda
B5: #9104v-H19 (antibody, human IgG4 S228P, lambda, V domains shown)
VH: B1 VH with N57V, I58P
VL: B1 VL
notes: Full-length IgG, lambda
B6: #9104v-H22 (antibody, human IgG4 S228P, lambda, V domains shown)
VH: B1 VH with I51L, S55G, N57T, I58P
VL: B1 VL
notes: Full-length IgG, lambda
B7: #9104v-H33 (antibody, human IgG4 S228P, lambda, V domains shown)
VH: B1 VH with I51V, G54P, I58P
VL: B1 VL
notes: Full-length IgG, lambda
B8: #9104v-H17 (antibody, human IgG4 S228P, lambda, V domains shown)
VH: B1 VH with Q39R, N57T, I58P, D62A
VL: B1 VL
notes: Full-length IgG, lambda
B9: #9104v-H25 (antibody, human IgG4 S228P, lambda, V domains shown)
VH: B1 VH with I51T, G54A, N57G
VL: B1 VL
notes: Full-length IgG, lambda
B10: #9104v-H05 (antibody, human IgG4 S228P, lambda, V domains shown)
VH: B1 VH with S55G, G56V, N57K
VL: B1 VL
notes: Full-length IgG, lambda
B11: #9104v-H02 (antibody, human IgG4 S228P, lambda, V domains shown)
VH: B1 VH with Y53F, N57D, Y59R
VL: B1 VL
notes: Full-length IgG, lambda
B12: #9104v-H11 (antibody, human IgG4 S228P, lambda, V domains shown)
VH: B1 VH with N57I, I58P, G66E
VL: B1 VL
notes: Full-length IgG, lambda
B13: #9104v-H30 (antibody, human IgG4 S228P, lambda, V domains shown)
VH: B1 VH with I51T, G54S, N57G
VL: B1 VL
notes: Full-length IgG, lambda
B14: #9104v-H27 (antibody, human IgG4 S228P, lambda, V domains shown)
VH: B1 VH with I51T, G54D, N57Y, I58V
VL: B1 VL
notes: Full-length IgG, lambda
B15: #9104v-H14 (antibody, human IgG4 S228P, lambda, V domains shown)
VH: B1 VH with N57K, I58P
VL: B1 VL
notes: Full-length IgG, lambda
B16: #9104v-H26 (antibody, human IgG4 S228P, lambda, V domains shown)
VH: B1 VH with I51T, G54A, I58A
VL: B1 VL
notes: Full-length IgG, lambda
B17: #9104v-H13 (antibody, human IgG4 S228P, lambda, V domains shown)
VH: B1 VH with N57I, I58P, D62N
VL: B1 VL
notes: Full-length IgG, lambda
B18: #9104v-H10 (antibody, human IgG4 S228P, lambda, V domains shown)
VH: B1 VH with S55N, N57I, I58P, G66D
VL: B1 VL
notes: Full-length IgG, lambda
B19: #9104v-L55 (antibody, human IgG4 S228P, lambda, V domains shown)
VH: B1 VH
VL: B1 VL with S53W, H54Y, S57T
notes: Full-length IgG, lambda
B20: #9104v-L47 (antibody, human IgG4 S228P, lambda, V domains shown)
VH: B1 VH
VL: B1 VL with H54Y, R55T
notes: Full-length IgG, lambda
B21: #9104v-L65 (antibody, human IgG4 S228P, lambda, V domains shown)
VH: B1 VH
VL: B1 VL with S53Y, H54Y, R55Q, P56S
notes: Full-length IgG, lambda
B22: #9104v-L63 (antibody, human IgG4 S228P, lambda, V domains shown)
VH: B1 VH
VL: B1 VL with S95W, S97G
notes: Full-length IgG, lambda
B23: #9104v-L52 (antibody, human IgG4 S228P, lambda, V domains shown)
VH: B1 VH
VL: B1 VL with S53V, S57R
notes: Full-length IgG, lambda
B24: #9104v-L49 (antibody, human IgG4 S228P, lambda, V domains shown)
VH: B1 VH
VL: B1 VL with S53T, H54F, S57T
notes: Full-length IgG, lambda
B25: #9104v-L64 (antibody, human IgG4 S228P, lambda, V domains shown)
VH: B1 VH
VL: B1 VL with S53Y, H54F, R55S, P56H
notes: Full-length IgG, lambda
B26: #9104v-L46 (antibody, human IgG4 S228P, lambda, V domains shown)
VH: B1 VH
VL: B1 VL with H54Y, P56S, S57W
notes: Full-length IgG, lambda

Molecular target: T1, recombinant human ASM protein
Experiment: BLI (Octet), antibody on AHC sensor
Description: (§1) The binding affinity, to the ASM protein, of the produced antibodies specifically binding to the ASM protein and the interactive dynamics therebetween were measured using an Octet® QK384 system (Pall Life Sciences).
(§2) First, an antibody specifically binding to the ASM protein produced in Example 1 was captured using an anti-human IgG Fc capture (AHC) biosensor, and 1.25, 2.5, 5, 10, or 20 nM recombinant human ASM protein solution was added thereto. […] The association constant (Kₐ), dissociation constant (Kd), and equilibrium dissociation constant (KD) for each antibody were determined using Octet® analysis software (Pall Life® Sciences). As a result, the binding affinities, to the human ASM protein, of the antibodies with mutations in the heavy chain CDR regions of the antibody #9104 as depicted in Table 1 are shown in Table 5, and the binding affinities, to the human ASM protein, of the antibodies with mutations of the light chain CDR regions in the antibody #9104 as depicted in Table 2 are shown in Table 6.

Row | Kd | koff | kon | Binder
1 | 2250 pM | 0.000873 s⁻¹ | 389000 M⁻¹ s⁻¹ | B1
2 | 1010 pM | 0.000206 s⁻¹ | 204000 M⁻¹ s⁻¹ | B2
3 | 532 pM | 0.000141 s⁻¹ | 266000 M⁻¹ s⁻¹ | B3
4 | 2690 pM | 0.000264 s⁻¹ | 97900 M⁻¹ s⁻¹ | B4
5 | 692 pM | 0.000184 s⁻¹ | 266000 M⁻¹ s⁻¹ | B5
6 | 798 pM | 0.000157 s⁻¹ | 197000 M⁻¹ s⁻¹ | B6
7 | 517 pM | 0.000108 s⁻¹ | 208000 M⁻¹ s⁻¹ | B7
8 | 719 pM | 0.000243 s⁻¹ | 338000 M⁻¹ s⁻¹ | B8
9 | 917 pM | 0.00019 s⁻¹ | 207000 M⁻¹ s⁻¹ | B9
10 | 1030 pM | 0.000177 s⁻¹ | 171000 M⁻¹ s⁻¹ | B10
11 | 1200 pM | 0.000333 s⁻¹ | 278000 M⁻¹ s⁻¹ | B11
12 | 781 pM | 0.000195 s⁻¹ | 250000 M⁻¹ s⁻¹ | B12
13 | 762 pM | 0.000151 s⁻¹ | 199000 M⁻¹ s⁻¹ | B13
14 | 598 pM | 0.000165 s⁻¹ | 276000 M⁻¹ s⁻¹ | B14
15 | 857 pM | 0.000281 s⁻¹ | 328000 M⁻¹ s⁻¹ | B15
16 | 1740 pM | 0.000305 s⁻¹ | 175000 M⁻¹ s⁻¹ | B16
17 | 803 pM | 0.000185 s⁻¹ | 231000 M⁻¹ s⁻¹ | B17
18 | 651 pM | 0.000154 s⁻¹ | 237000 M⁻¹ s⁻¹ | B18

Molecular target: T1, recombinant human ASM protein
Experiment: BLI (Octet), antibody on AHC sensor
Remark: another data set of the same source
Description: as §1, §2

Row | Kd | koff | kon | Binder
19 | 2250 pM | 0.000873 s⁻¹ | 389000 M⁻¹ s⁻¹ | B1
20 | 879 pM | 0.00017 s⁻¹ | 193000 M⁻¹ s⁻¹ | B19
21 | 1410 pM | 0.000415 s⁻¹ | 294000 M⁻¹ s⁻¹ | B20
22 | 532 pM | 0.000192 s⁻¹ | 360000 M⁻¹ s⁻¹ | B21
23 | 1410 pM | 0.000255 s⁻¹ | 181000 M⁻¹ s⁻¹ | B22
24 | 982 pM | 0.000264 s⁻¹ | 269000 M⁻¹ s⁻¹ | B23
25 | 785 pM | 0.000225 s⁻¹ | 286000 M⁻¹ s⁻¹ | B24
26 | 505 pM | 0.000193 s⁻¹ | 383000 M⁻¹ s⁻¹ | B25
27 | 880 pM | 0.000258 s⁻¹ | 293000 M⁻¹ s⁻¹ | B26

Molecular target: T1, recombinant human ASM protein
Experiment: BLI (Octet), antibody on AHC sensor
Remark: another data set of the same source

Row | Kd | koff | kon | Binder
28 | 2190 pM | 0.000855 s⁻¹ | 391000 M⁻¹ s⁻¹ | B1
